Experimental data reported in article PMC4558565.

B1: bZIP63 (protoplast two-hybrid fusion) [Arabidopsis thaliana] / bZIP11 (protoplast two-hybrid fusion) [Arabidopsis thaliana] (parent)
chain 1: MEKVFSDEEISGNHHWSVNGMTSLNRSASEWAFNRFIQESSAAADDGESTTACGVSVSSPPNVPVDSEEYRAFLKSKLNLACAAVAMKRGTFIKPQDTSGRSDNGGANESEQASLASSKATPMMSSAITSGSELSGDEEEADGETNMNPTNVKRVKRMLSNRESARRSRRRKQAHLSELETQVSQLRVENSKLMKGLTDVTQTFNDASVENRVLKANIETLRAKVKMAEETVKRLTGFNPMFHNMPQIVSTVSLPSETSNSPDTTSSQVTTPEIISSGNKGKALIGCKMNRTASMRRVESLEHLQKRIRSVGDQ
chain 2: MESSSSGTTSSTIQTSSGSEESLMEQRKRKRMLSNRESARRSRMKKQKLLDDLTAQVNHLKKENTEIVTSVSITTQHYLTVEAENSVLRAQLDELNHRLQSLNDIIEFLDSSNNNNNNNMGMCSNPLVGLECDDFFVNQMNMSYIMNQPLMASSDALMY
B2: bZIP63 (protoplast two-hybrid fusion) [Arabidopsis thaliana] / bZIP63 (protoplast two-hybrid fusion) [Arabidopsis thaliana] (parent)
chain 1: B1 chain 1
chain 2: B1 chain 1

Key:
[1] = variants of: B1; assay: protoplast two-hybrid (P2H) assay; details: for response (% of signal with wt bZIP63 and AKIN10): - AKIN10 (no co-transformation), parent: 8, read off a plot; for percent of parent: with bZIP11 (protoplast two-hybrid fusion) [Arabidopsis thaliana], + AKIN10 co-transformation, parent: 100, read off a plot
[2] = variants of: B2; assay: protoplast two-hybrid (P2H) assay; details: for response (% of signal with wt bZIP63 and AKIN10): - AKIN10 (no co-transformation), parent: 13, read off a plot; for percent of parent: with bZIP63 (protoplast two-hybrid fusion) [Arabidopsis thaliana], + AKIN10 co-transformation, parent: 100, read off a plot

Variant	response (% of signal with wt bZIP63 and AKIN10) [1]	percent of parent [1] [%]	response (% of signal with wt bZIP63 and AKIN10) [2]	percent of parent [2] [%]
chain 1 MEKVFSDEEISGNHHWSVNGMTSLNRSAAEWAFNRFIQESSAAADDGESTTACGVSVSSPPNVPVDSEEYRAFLKSKLNLACAAVAMKRGTFIKPQDTSGRSDNGGANESEQASLASSKATPMMSSAITSGSELSGDEEEADGETNMNPTNVKRVKRMLSNRESARRSRRRKQAHLSELETQVSQLRVENSKLMKGLTDVTQTFNDASVENRVLKANIETLRAKVKMAEETVKRLTGFNPMFHNMPQIVSTVSLPSETSNSPDTTSSQVTTPEIISSGNKGKALIGCKMNRTASMRRVESLEHLQKRIRSVGDQ [chain 1 S29A]	11	32	–	–
chain 1 MEKVFSDEEISGNHHWSVNGMTSLNRSAAEWAFNRFIQESSAAADDGESTTACGVSVSSPPNVPVDSEEYRAFLKSKLNLACAAVAMKRGTFIKPQDTSGRSDNGGANESEQASLASSKATPMMSSAITSGSELSGDEEEADGETNMNPTNVKRVKRMLSNRESARRSRRRKQAHLSELETQVSQLRVENSKLMKGLTDVTQTFNDASVENRVLKANIETLRAKVKMAEETVKRLTGFNPMFHNMPQIVSTVSLPSETSNSPDTTSSQVTTPEIISSGNKGKALIGCKMNRTAAMRRVEALEHLQKRIRSVGDQ [chain 1 S29A S294A S300A]	7.5	27	–	–
chain 1 MEKVFSDEEISGNHHWSVNGMTSLNRSASEWAFNRFIQESSAAADDGESTTACGVSVSSPPNVPVDSEEYRAFLKSKLNLACAAVAMKRGTFIKPQDTSGRSDNGGANESEQASLASSKATPMMSSAITSGSELSGDEEEADGETNMNPTNVKRVKRMLSNRESARRSRRRKQAHLSELETQVSQLRVENSKLMKGLTDVTQTFNDASVENRVLKANIETLRAKVKMAEETVKRLTGFNPMFHNMPQIVSTVSLPSETSNSPDTTSSQVTTPEIISSGNKGKALIGCKMNRTAAMRRVESLEHLQKRIRSVGDQ [chain 1 S294A]	7	110	–	–
chain 1 MEKVFSDEEISGNHHWSVNGMTSLNRSASEWAFNRFIQESSAAADDGESTTACGVSVSSPPNVPVDSEEYRAFLKSKLNLACAAVAMKRGTFIKPQDTSGRSDNGGANESEQASLASSKATPMMSSAITSGSELSGDEEEADGETNMNPTNVKRVKRMLSNRESARRSRRRKQAHLSELETQVSQLRVENSKLMKGLTDVTQTFNDASVENRVLKANIETLRAKVKMAEETVKRLTGFNPMFHNMPQIVSTVSLPSETSNSPDTTSSQVTTPEIISSGNKGKALIGCKMNRTAAMRRVEALEHLQKRIRSVGDQ [chain 1 S294A S300A]	10	110	–	–
chain 1 MEKVFSDEEISGNHHWSVNGMTSLNRSASEWAFNRFIQESSAAADDGESTTACGVSVSSPPNVPVDSEEYRAFLKSKLNLACAAVAMKRGTFIKPQDTSGRSDNGGANESEQASLASSKATPMMSSAITSGSELSGDEEEADGETNMNPTNVKRVKRMLSNRESARRSRRRKQAHLSELETQVSQLRVENSKLMKGLTDVTQTFNDASVENRVLKANIETLRAKVKMAEETVKRLTGFNPMFHNMPQIVSTVSLPSETSNSPDTTSSQVTTPEIISSGNKGKALIGCKMNRTASMRRVEALEHLQKRIRSVGDQ [chain 1 S300A]	13	100	–	–
chain 1 MEKVFSDEEISGNHHWSVNGMTSLNRSAAEWAFNRFIQESSAAADDGESTTACGVSVSSPPNVPVDSEEYRAFLKSKLNLACAAVAMKRGTFIKPQDTSGRSDNGGANESEQASLASSKATPMMSSAITSGSELSGDEEEADGETNMNPTNVKRVKRMLSNRESARRSRRRKQAHLSELETQVSQLRVENSKLMKGLTDVTQTFNDASVENRVLKANIETLRAKVKMAEETVKRLTGFNPMFHNMPQIVSTVSLPSETSNSPDTTSSQVTTPEIISSGNKGKALIGCKMNRTASMRRVESLEHLQKRIRSVGDQ [chain 1 S29A]	–	–	7	44
chain 1 MEKVFSDEEISGNHHWSVNGMTSLNRSAAEWAFNRFIQESSAAADDGESTTACGVSVSSPPNVPVDSEEYRAFLKSKLNLACAAVAMKRGTFIKPQDTSGRSDNGGANESEQASLASSKATPMMSSAITSGSELSGDEEEADGETNMNPTNVKRVKRMLSNRESARRSRRRKQAHLSELETQVSQLRVENSKLMKGLTDVTQTFNDASVENRVLKANIETLRAKVKMAEETVKRLTGFNPMFHNMPQIVSTVSLPSETSNSPDTTSSQVTTPEIISSGNKGKALIGCKMNRTAAMRRVEALEHLQKRIRSVGDQ [chain 1 S29A S294A S300A]	–	–	11	–
chain 1 MEKVFSDEEISGNHHWSVNGMTSLNRSASEWAFNRFIQESSAAADDGESTTACGVSVSSPPNVPVDSEEYRAFLKSKLNLACAAVAMKRGTFIKPQDTSGRSDNGGANESEQASLASSKATPMMSSAITSGSELSGDEEEADGETNMNPTNVKRVKRMLSNRESARRSRRRKQAHLSELETQVSQLRVENSKLMKGLTDVTQTFNDASVENRVLKANIETLRAKVKMAEETVKRLTGFNPMFHNMPQIVSTVSLPSETSNSPDTTSSQVTTPEIISSGNKGKALIGCKMNRTAAMRRVESLEHLQKRIRSVGDQ [chain 1 S294A]	–	–	10	75
chain 1 MEKVFSDEEISGNHHWSVNGMTSLNRSASEWAFNRFIQESSAAADDGESTTACGVSVSSPPNVPVDSEEYRAFLKSKLNLACAAVAMKRGTFIKPQDTSGRSDNGGANESEQASLASSKATPMMSSAITSGSELSGDEEEADGETNMNPTNVKRVKRMLSNRESARRSRRRKQAHLSELETQVSQLRVENSKLMKGLTDVTQTFNDASVENRVLKANIETLRAKVKMAEETVKRLTGFNPMFHNMPQIVSTVSLPSETSNSPDTTSSQVTTPEIISSGNKGKALIGCKMNRTAAMRRVEALEHLQKRIRSVGDQ [chain 1 S294A S300A]	–	–	10	67
chain 1 MEKVFSDEEISGNHHWSVNGMTSLNRSASEWAFNRFIQESSAAADDGESTTACGVSVSSPPNVPVDSEEYRAFLKSKLNLACAAVAMKRGTFIKPQDTSGRSDNGGANESEQASLASSKATPMMSSAITSGSELSGDEEEADGETNMNPTNVKRVKRMLSNRESARRSRRRKQAHLSELETQVSQLRVENSKLMKGLTDVTQTFNDASVENRVLKANIETLRAKVKMAEETVKRLTGFNPMFHNMPQIVSTVSLPSETSNSPDTTSSQVTTPEIISSGNKGKALIGCKMNRTASMRRVEALEHLQKRIRSVGDQ [chain 1 S300A]	–	–	8	79
